# Measurements: US20170137511A1 (CALYPSO BIOTECH, published 2017)
# B1: cVH1:hVK2 (antibody, human IgG1, kappa, V domains shown)
# VH: EVRLMASGGGLVKPGGSLKLSCAASEFTFSNYAMSWVRQTPEKRLEWVATISRGGDYTYYPDSVKGRFTISRDNAKNTLYLQMSSLRSEDTALYYCARRVSMITGGWAMDYWGQGTSVTVSS
# VL: EVVMTQSPATLSLSPGERATLSCRSSQSIVDITGNTYLEWYQQKPGQAPRLLIYKVFNRFSGIPARFSGSGSGTDFTLTISSLEPEDFAVYYCFQDSFVPYTFGQGTKLEIKR
# notes: Human IgG1 (G1m3) / kappa (Km3)
# Target: T1, human IL-15 (preparation not stated) (human, UniProt P40933 49-162, limits assumed)
# T1 construct: also called recombinant IL-15; recombinant human IL-15
# Experiment: ELISA; the weaker binders of the comparison
# T1 sequence (P40933 49-162 limits assumed): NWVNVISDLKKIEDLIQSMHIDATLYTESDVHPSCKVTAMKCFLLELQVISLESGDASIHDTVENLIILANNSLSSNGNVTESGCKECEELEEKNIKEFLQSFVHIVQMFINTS
binder,measurement,value
B1,binding result,binds
